The values below come from doi:10.1101/373563 (bioRxiv, 2018).

Data set [1] concerns the target Facklamia ignava NrdB∆Grx (lacking the Grx domain) (Facklamia ignava). The data set can be described thus: GEMMA.
Data set [2] deals with the molecule itself. Kind of data set: SEC.
Data set [3] deals with the molecule itself. The data set can be described thus: SEC. This is another data set of the same source.
The data set “GEMMA” concerns the molecule itself. The data set can be described thus: GEMMA.

As to “Facklamia ignava NrdB∆Grx (lacking the Grx domain) (domain or fragment)”, the stoichiometry N in data set [1] was 4.

B1: Facklamia ignava NrdA (natural protein, UniProt K1MC37 1-567, looked up)
chain: MTAQLKNREYEPFYWLTEDSQTFLERGYLREGQDAHSRLREIADRAEEILGIDGFSDKFYTYLGRGYYSLSTPVWTNFGSNRGFPISCFGSTPDDNMASILYTAAEIGMMSKYGGGTSGFFGHLRPRGAAITNNGYSSGAVHFMKLFEQMTDTVSQGSSRRGRFAPYLPIDHPDIDEFLEIGVEGNDIQDLNHAVTVPDDWMREMIQGDREKRATWAKVIQRRVEMGYPYILFTDTINNNKPEWYHDYPITHSNLCSEIMLPDNDHWSFVCNLSSMNVLHYNEWKDTDAVETMIYFLDAVMSEFIEKLEKLRDSDQFEYREAFHFMERAYNFAVENRALGLGVLGWHSLLQSNLIAFESEEASYLNEEIHRTIQERAEKASCELAELFGEPLILKGTGRRNTTTMAIAPTTSSAFIIGQVSQSIEPLFSNYYVKDMSKIKTTIRNRYLVELLEEKGRNTPDVWESIKNHDGSVLHLDFLSDHEKNVFKTFAEINQYEIINQAAVRQRYIDQSQSLNIMINPATTTAKEMNQLYLYAWESGIKSLYYQHSTSAAQAFYRSSVCLACEA
With B1, in the data set “SEC [2]”, the “stoichiometry N” value was 2.

B2: Facklamia ignava NrdB (Grx::ATP-cone::NrdB fusion protein), wild type (natural protein, UniProt K1LAT4 1-496, looked up)
chain: MTQVQVYSKKVCPWCTRLKDWMDKNNIDYEEIDIEVHPEAREYLHSLGLKTVPQVFIDGVHRPHEPLYSNLLHYIHGTSKIPQHVTKRNGDRVDFDPTKIEIAIQKANNETHELNDMEINTVTQKVVEKIDIDPIHVEEIQDLVETELMLQSFPRTAKAYILYRAEQTKARQRDIFKPRKNLKPYEYPELESYKEAIQHSYWLHTEYNYTSDIQDYKINVEPHERTAIRNAMLAISQVEVSVKTFWAKLYDRLPKPELANVGMTFAESEVRHSDAYSHLLELLGLNEIFEEIEQIPALNQRVDYLNSHIKYSQTGSNRDYTISILLFSAFIEHISLFSQFLIIMAFNKQKNLFSGISNVIEATSKEEQLHGEFGIDLINTIKAENPDWFDDELKEEIYTLVKQAYESEKDVLDWIYEDGEIDFMPTQTVLEFIKNRLNNSLEAIGLERIFETDLAEVEKTLWFDEEIVSTKHVDFFAKRSVNYTKRSQSMTADDLF
B2: the “stoichiometry N” value is 4 in “SEC [3]” and 2 in the data set “GEMMA”.
